According to the supplement of paper PMC11865577:

How the values were obtained:
Experiment in all cases: pull-down binding Z-score (relative to library population); higher = stronger binding
TO-N3 (biotin conjugate) = conditions: RNA library: Library-2
Summary of the method: (§1)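 To score binding, a beads-only signal was subtracted, barcoded replicate probes were averaged with the highest and lowest dropped, and the value was converted to a Z-score using the library mean and standard deviation. The input was 1 μg of Cy5- or Cy3-end-labelled RNA library, heat-folded in phosphate/NaCl/KCl buffer and mixed for 60 min at 25 °C with streptavidin beads carrying 100 pmol of biotin-conjugated small molecule. Bound RNA was eluted in hot SDS and hybridised to a DNA barcode microarray at 55.5 °C for 20 h.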

[1] = system: TO-3-N3 (biotin conjugate); conditions: RNA library: Library-2
Summary of the method: as §1

[2] = system: G-clamp-N3 (biotin conjugate); conditions: RNA library: Library-1 (pre-miRNA loops + repeats)
Summary of the method: as §1

[3] = system: TO-N3-2 (biotin conjugate); conditions: RNA library: Library-2
Summary of the method: as §1

[4] = system: TO-3-N3-2 (biotin conjugate); conditions: RNA library: Library-2
Summary of the method: as §1

Sequence	pull-down binding Z-score (TO-N3 (biotin conjugate))	pull-down binding Z-score [1]	pull-down binding Z-score [2]	pull-down binding Z-score [3]	pull-down binding Z-score [4]
GGUGGGUGGGAAGUAAGAUCUGACCUGGACUCCAUCCCACCCACC [hsa-mir-4640]	5.35	4.87	0.122	4.38	4.64
GGUGGUUGUGGGAGUCACU [hsa-mir-4418]	2.18	1.58	-0.575	1.93	1.89
GGUGUCAUGCCCCAAGAUAACC [hsa-mir-634]	-0.387	-0.514	-0.532	0.0681	-0.28
GGUGUCGAACUCAUGGCUGCCACC [hsa-mir-6782]	-0.065	-0.346	0.197	0.629	-0.167
GGUUCAAGUUUGGCUCCAUCUUUAUGAAA [hsa-mir-4506]	0.0775	-0.0094	-0.636	0.415	0.109
GGUUCCCACGCCGCGGCAACC [hsa-mir-6776]	0.217	0.0159	-1.36	0.293	-0.135
GGUUCUCAGUCAGAACC [hsa-mir-6813]	-0.372	-0.0211	0.755	-1.21	-0.346
GGUUCUGGGGUGUAGACGCUGCUGGCCAGCC [hsa-mir-4707]	0.587	0.287	1.08	0.971	0.282
GGUUCUUCCCGAAGC [hsa-mir-4710]	0.0409	-0.0117	0.205	-0.359	-0.22
GGUUGCUGGAGGUCAGC [hsa-mir-6871]	0.489	0.155	0.0274	0.785	0.233
GGUUGGCCGCUGACCCCCGCGGGGCCCCCGGCGGCC [hsa-mir-3195]	0.0623	-0.103	0.0226	0.847	-0.293
GGUUGGGGUGGGCUGCCUGUGGACCAAUC [hsa-mir-4525]	2.44	2.14	0.722	1.94	1.06
GGUUGUUAGAUAGACAACU [hsa-mir-4510]	0.328	0.632	0.718	-0.496	0.19
GGUUGUUUAAUUAGGAACCAACU [hsa-mir-190b]	-0.293	-0.247	-0.019	-0.593	0.0266
GGUUUCCUUCGGGGCAGGUGGGGACUGCUCCUUUGGGAGGAAGGAGGAGGCC [hsa-mir-4453]	2.34	2.21	1.28	2.11	1.96
GGUUUCGGGCUGCC [hsa-mir-661]	0.249	0.148	0.142	0.74	0.067
GGUUUCUUAAAAUGGAAUCU [hsa-mir-1255b-1]	-0.413	-0.382	0.385	-0.251	0.0245
GGUUUGCGCCUCAAGAAACC [hsa-mir-1255b-2]	-0.0954	-0.187	0.436	0.521	-0.306
GGUUUUGCCAUCAUGCCAAAAGCU [hsa-mir-548v]	0.277	0.00688	-0.76	0.259	-0.0997
GGUUUUUACCAUUAAAACC [hsa-mir-548aw]	-1.01	-0.656	-0.37	-1.44	-0.448
GUAAGAGAGACUCUCGCUUCCUGC [hsa-mir-874]	0.169	0.0696	-1	0.462	-0.291
GUAGAUUGAAAGCCCUAAUUUUAC [hsa-mir-3941]	-0.0427	-0.486	-0.805	0.452	0.306
GUAGAUUUUAUGUCAC [hsa-mir-892b]	-0.00927	-0.000191	-0.748	0.0365	-0.156
GUAUACUGAGCUUAUGUAUGCAUCUGCAUAC [hsa-mir-5591]	0.39	0.357	0.344	0.0714	0.0113
GUAUGAGUGCCACAGAGCCGUCAUAA [hsa-mir-9-3]	1.39	0.938	-0.99	1.73	-0.231

Sequence	pull-down binding Z-score (TO-N3 (biotin conjugate))	pull-down binding Z-score [1]	pull-down binding Z-score [2]	pull-down binding Z-score [3]	pull-down binding Z-score [4]
GUAUGAGUGGUGUGGAGUCUUCAUAA [hsa-mir-9-1]	0.292	0.179	-0.511	0.298	-0.08
GUAUGAGUGUAUUGGUCUUCAUAA [hsa-mir-9-2]	0.0907	-0.226	-0.373	0.481	0.203
GUCACAAAUUCAAAUAAAGUGAG [hsa-mir-4693]	1.03	1.05	-1.04	0.598	0.544
GUCACCAGCCCUCAUGUACUUGUGAC [hsa-mir-6820]	0.222	0.335	-1.09	-0.281	-0.289
GUCACUGUCUCAAAUCAGUGAC [hsa-mir-549a]	-0.129	0.183	-0.711	-1.33	-0.427
GUCAGGAGUGGCUUUCCUGAC [hsa-mir-4462]	0.279	0.414	-0.232	-0.397	-0.271
GUCAGGUGAUGGUGAUAAGGUCAAGGCCUG [hsa-mir-6853]	0.388	-0.0611	0.547	1.03	-0.0266
GUCAGUCCCAAUCUGAAUCCCACCAAAAUAGGUGGUAGAGGGUUGC [hsa-mir-4290]	0.0867	-0.204	-1.14	0.752	0.249
GUCAUUACUUUCAAUAGC [hsa-mir-548p]	-0.684	-0.59	0.0268	-0.372	-0.254
GUCAUUUCCCAUCACUAAUGGC [hsa-mir-6815]	-0.873	-0.674	-0.92	-0.881	-0.336
GUCAUUUUUCUGUGACUGCACAUGGC [hsa-mir-3136]	-0.215	-0.191	-0.497	-0.214	-0.15
GUCCAUUAGGCUUUGUUAUGGAAACUUCUCCUGAUC [hsa-mir-635]	0.6	0.517	-0.608	0.875	0.607
GUCCCAAUACAUGUGGGCC [hsa-mir-586]	-0.22	-0.000511	-0.0916	-0.294	-0.158
GUCCGGGUGGGUUCCGGCA [hsa-mir-657]	1.33	1.07	-2.05	2.1	1.29
GUCCUGACUGCGUGCCAGGGGC [hsa-mir-3650]	-0.175	-0.235	0.903	0.488	-0.518
GUCCUGCCCUCACUGGGAACCCCCUUCCCUCUGGGUACCAG [hsa-mir-1324]	1.88	1.48	-0.948	1.39	0.477
GUCUCGGUCCUUUGGAACGUGGC [hsa-mir-4470]	-0.607	-0.39	-0.378	-0.476	-0.387
GUCUGCCAAAACCUUGGCAGAC [hsa-mir-3913-1]	-1.02	-0.531	0.901	-1.22	-0.517
GUCUGCCAAGGUUUUGGCAGAC [hsa-mir-3913-2]	-0.992	-0.58	0.558	-1.2	-0.539
GUCUGGCAUUGUCUGAUAUAC [hsa-mir-1294]	1.2	1.12	0.671	0.408	0.316
GUCUGUCACUGGGGAAGUC [hsa-mir-4682]	1.19	0.735	1.71	0.993	0.276
GUCUGUUUUCUUCAUGGUUUUCUGAC [hsa-mir-6759]	-0.999	-0.779	0.125	-0.557	-0.481
GUCUUGAUCCCCCACCCCAAGAC [hsa-mir-642b]	-0.41	-0.257	-1.37	0.091	-0.299
GUCUUGGGGUGGGGGAUCAAGAC [hsa-mir-642a]	2.61	2.99	0.431	1.89	2.9
GUGAACAUUGCAU [hsa-mir-4301]	-0.356	-0.353	-0.223	-0.237	-0.219

Sequence	pull-down binding Z-score (TO-N3 (biotin conjugate))	pull-down binding Z-score [1]	pull-down binding Z-score [2]	pull-down binding Z-score [3]	pull-down binding Z-score [4]
GUGAACCUGAAUUUGCCUUGGGUUUCCU [hsa-mir-670]	0.262	-0.509	-0.325	1.76	-0.132
GUGACGCCGCGAAGUGCAC [hsa-mir-3147]	0.406	0.25	1.18	0.997	0.172
GUGAGAGAUGCUUCUAGAUCCAGGAGGCAGACCUCAA [hsa-mir-4325]	0.822	0.524	-0.658	0.879	0.123
GUGAGAUGUUCAUACAAUCCCUCAC [hsa-mir-216a]	-0.852	-0.788	-1.01	-0.17	-0.438
GUGAGCGCAGGUCUUUGGCAC [hsa-mir-4450]	0.339	0.104	2.36	0.729	0.39
GUGAGCUCAGCUCCCUGCCUCAC [hsa-mir-3622b]	0.138	-0.00258	-1.4	0.811	-0.173
GUGAGCUGGAAAUGGGGUGCUAC [hsa-mir-598]	1.5	1.46	1.37	0.962	0.651
GUGAGGCAGGGAGCUGAGCUCAC [hsa-mir-3622a]	0.698	0.401	-0.0355	1.06	0.142
GUGAGGUAUUUUAGUAACAUCAC [hsa-mir-125b-2]	-0.969	-0.818	0.629	-0.794	-0.536
GUGAGUGUCUCUUGUCGC [hsa-mir-1281]	0.328	0.334	1.22	0.25	-0.252
GUGAGUUAGAAAAGCUCAAUUCAC [hsa-mir-4457]	-0.662	-0.654	-0.276	-0.405	-0.365
GUGAUAGGAUUUAUCAC [hsa-mir-4999]	-0.436	-0.154	-0.554	-0.819	-0.295
GUGAUAGUAAUAAAGUCUCAU [hsa-mir-135a-2]	-0.32	-0.314	-0.286	-0.0282	-0.218
GUGAUGUGAGGAGCAACAGGCACCCUCCU [hsa-mir-6792]	0.246	-0.0611	-0.596	0.846	0.254
GUGAUUACAUUAAAACUUAAAAUUUCAC [hsa-mir-4719]	-0.105	-0.0289	-1.01	-0.663	-0.244
GUGAUUGUCUUCCUCACUCAAUCAG [hsa-mir-4704]	0.0942	0.145	-1.11	-0.0609	-0.174
GUGCACUUCAUUUACGAUGUAG [hsa-mir-1193]	0.741	0.515	-0.679	0.478	0.167
GUGCAGCUUGUACCUGCAC [hsa-mir-1293]	-0.0262	-0.154	-0.00619	-0.592	-0.574
GUGCUGGCAGUGGCCACGUAA [hsa-mir-4276]	0.642	-0.0231	0.096	1.46	0.0605
GUGGAACUGACCUGCCCCCUUUCUC [hsa-mir-6817]	0.517	0.152	-1.77	0.882	0.124
GUGGAAUGCAAAGUCCCAC [hsa-mir-5698]	-0.332	-0.264	-0.39	-0.551	-0.36
GUGGACAGAGGCAAAACUCUAACUUC [hsa-mir-6078]	0.0919	-0.31	-1.45	0.491	-0.41
GUGGAGCCAAAAUUAGAAGGGCCAAAAUUCUACCUGGCCCACUACCACAG [hsa-mir-3978]	-0.00817	-0.3	-0.932	0.705	0.318
GUGGAGGGUGGUGCCGCCGGGGCCGGGCGCUGUUUCAGCUCGCUUCUCCCCCCAC [hsa-mir-1224]	2.71	2.06	0.608	2.36	1.31
GUGGAGGUAGGCGAGAGUAAUAUAAUUUCUCCAGGAGAACAUCUGAGAGGGGAAGUUGCUUUCCUGCCCUGGCCCUUUCAC [hsa-mir-6076]	0.735	0.431	-0.319	1.37	0.000368
